A short description of the data set: soluble on expression in E. coli; label from the status in PepcDB or PDB records.
Regarding “MPGSPRPAPSWVLLLRLLALLRPPGLGEACSCAPAHPQQHICHSALVIRAKISSEKVVPASADPADTEKMLRYEIKQIKMFKGFEKVKDVQYIYTPFDSSLCGVKLEANSQKQYLLTGQVLSDGKVFIHLCNYIEPWEDLSLVQRESLNHHYHLNCGCQITTCYTVPCTISAPNECLWTDWLLERKLYGYQAQHYVCMKHVDGTCSWYRGHLPLRKEFVDIVQP”, the “soluble on expression in E. coli” value is “soluble”.
Consider “MKRLLLLGGIGEALALARRLGPAHLYSLAGLGKVPGDLACRVRVGGYGGAEGLAAFIDEQGFDLLVDATHPYAARISQNAVRAARLAGVPCWALRRPGWQAGPGDDWREVADWRELIAALTPFRRPLFTLGREPLEHLGQVPPHQHWTVRCLQGQPAAPRAEVIGARGPFSLDGERALFERLACDVLVSKNSGSQATEPKLQVAREMGLPVLVLARPALPPADREFADGEALLTAIRDWESA”, for which the “soluble on expression in E. coli” value was “not soluble”.
As to “MNEKQADTLLNVPEIVKRAKIALNLKRDSELASYLGVARATLSNWCARNSIDFPLLLNKLRHVDYNWLLTGKGSPLHDPKSFDNGKIRGEVETIHNSKTTEAIDDRSVTLYDITAAANLRTLLSDKRQYALGKILIPSIPACDGAIFVNGDSMYPILKSGDIVGFKGINNFSNVIYGEMYIVAFHLDGDQYLTVKYVNRSEKEGYVKLVSYNPHHEPMDLPVDTIQDMAIVKFSIRKNMMM”, the “soluble on expression in E. coli” value is listed as “not soluble”.
As for “MGSDKIHHHHHHMVKIKEGFKGERLVSLPEELLASYRREPLINNLYVRKIGFFPRVKYHFLQKEHGCDYAMLIYCTEGKGWYRILGKQYTVEKYQYIIIPPGIPYSFGADEGDPWTIYWLHFQGKLCDQFLPSHPVPVTISPNEYSRLQDRLRLFEEIYSSFSMGYIKEYMIYSSMCLYNFLASFIYLEQFRHIMIPSQKEYPFTARVIHYMRENIQQNLTLKELASYFKYSPSHFSALFFGETGVSPMNYFIRLKIQKACEYIELTNMKLNEIATHLGFEDAAYFSRTFTKVMGCSPSVYRKKEMEI”, the “soluble on expression in E. coli” value is listed as “not soluble”.
As for “MGSDKIHHHHHHMHVGRENSSFQICNSSQDIRKSDILDAMSIRFRQLQAFHATFETGTVTGAATLLGISQPGISNLLAQLERETRFKLFERVKGRLIPTPEAGVLYQEVDTVVRGLDHVGQAVTDLQNKQGGQLQVASQHAMSFGFMPKLIAQFAKTRPDMSISFQSQYSSKVQEWVMSGLFEIGVCETPQLYDALDTHPFQVEMQLTLHPDNPLARHDILTPELCGAEPFIVMGPDHMTHRRTREAFHTAGVPWNTRVHTHLFKNMLSFVQEDMGVAILDPFLLDHDESGSFVTRPFAPAIHMDMMVITSATRPLSTLALDFLDLLLTGIAQSDRRRVSPSNAAPGRPPLPMAAR”, the entry is “not soluble”.
The entry for “GAMGSDFLLGNPFSSPVGQRIEKATDGSLQSEDWALNMEICDIINETEEGPKDALRAVKKRIVGNKNFHEVMLALTVLETCVKNCGHRFHVLVASQDFVESVLVRTILPKNNPPTIVHDKVLNLIQSWADAFRSSPDLTGVVTIYEDLRRKGLEFPM” is “soluble”.
Regarding “MQAWFMDDSNEDQRLPHHRNPKELVSLDYLAELGVLYWKLNPENYENDSELSKIREDRGYDYMDLLDLCPEKVSNYEEKLKNFFTEHIHKDEEIRYCLAGSGYFDVRDKDDRWIRIWMQPGDLIVLPAGIYHRFTLDASNYIKLMRLFVGEPVWTPYNRPQEEHPVRKKYIHGLTYKFGETVKAH”, the “soluble on expression in E. coli” value was “soluble”.
As for “MAFESSKSYYSIGEVSRISGIPAYLLRYWEDYFSELAPARDTRGNRRYTNRDIAMVLNIKDLVYEKGYKLNKASQMVKGGKVDHDGADHKTNEILKLQKQLLREQKEYEITGERRRMLLLEIKDEIEDILELLG”, the entry is “not soluble”; as for “GPGSMASSKVILEDTFTVAAVNEEGTVYSRVSRVRCTGEGGGLIITSDVNTGEFPLHSGDRLTIILTDSIELSEQAGSKHYDQSVYHRSTRLDDCDYAMHGRVYSMEVNESSLDVTVHISCGGLLTQIVGKPQSLKDVHYNSDVYILMKRPGS”, “soluble”.

The record behind these values is the DeepSol protein solubility set.
